Read-outs that look alike come from different tables or passages of the source.
Key:
Assay in all cases: filter binding
[1] = biological target: T1, Py-DmBLM (Drosophila Bloom's syndrome helicase) (Drosophila, UniProt Q9VGI8 1-1487)
[2] = biological target: T1, Py-DmBLM (Drosophila Bloom's syndrome …); remark: listed apart in the source
[3] = biological target: T1, Py-DmBLM (Drosophila Bloom's syndrome …); remark: listed apart in the source

T1 sequence (Q9VGI8 whole entry): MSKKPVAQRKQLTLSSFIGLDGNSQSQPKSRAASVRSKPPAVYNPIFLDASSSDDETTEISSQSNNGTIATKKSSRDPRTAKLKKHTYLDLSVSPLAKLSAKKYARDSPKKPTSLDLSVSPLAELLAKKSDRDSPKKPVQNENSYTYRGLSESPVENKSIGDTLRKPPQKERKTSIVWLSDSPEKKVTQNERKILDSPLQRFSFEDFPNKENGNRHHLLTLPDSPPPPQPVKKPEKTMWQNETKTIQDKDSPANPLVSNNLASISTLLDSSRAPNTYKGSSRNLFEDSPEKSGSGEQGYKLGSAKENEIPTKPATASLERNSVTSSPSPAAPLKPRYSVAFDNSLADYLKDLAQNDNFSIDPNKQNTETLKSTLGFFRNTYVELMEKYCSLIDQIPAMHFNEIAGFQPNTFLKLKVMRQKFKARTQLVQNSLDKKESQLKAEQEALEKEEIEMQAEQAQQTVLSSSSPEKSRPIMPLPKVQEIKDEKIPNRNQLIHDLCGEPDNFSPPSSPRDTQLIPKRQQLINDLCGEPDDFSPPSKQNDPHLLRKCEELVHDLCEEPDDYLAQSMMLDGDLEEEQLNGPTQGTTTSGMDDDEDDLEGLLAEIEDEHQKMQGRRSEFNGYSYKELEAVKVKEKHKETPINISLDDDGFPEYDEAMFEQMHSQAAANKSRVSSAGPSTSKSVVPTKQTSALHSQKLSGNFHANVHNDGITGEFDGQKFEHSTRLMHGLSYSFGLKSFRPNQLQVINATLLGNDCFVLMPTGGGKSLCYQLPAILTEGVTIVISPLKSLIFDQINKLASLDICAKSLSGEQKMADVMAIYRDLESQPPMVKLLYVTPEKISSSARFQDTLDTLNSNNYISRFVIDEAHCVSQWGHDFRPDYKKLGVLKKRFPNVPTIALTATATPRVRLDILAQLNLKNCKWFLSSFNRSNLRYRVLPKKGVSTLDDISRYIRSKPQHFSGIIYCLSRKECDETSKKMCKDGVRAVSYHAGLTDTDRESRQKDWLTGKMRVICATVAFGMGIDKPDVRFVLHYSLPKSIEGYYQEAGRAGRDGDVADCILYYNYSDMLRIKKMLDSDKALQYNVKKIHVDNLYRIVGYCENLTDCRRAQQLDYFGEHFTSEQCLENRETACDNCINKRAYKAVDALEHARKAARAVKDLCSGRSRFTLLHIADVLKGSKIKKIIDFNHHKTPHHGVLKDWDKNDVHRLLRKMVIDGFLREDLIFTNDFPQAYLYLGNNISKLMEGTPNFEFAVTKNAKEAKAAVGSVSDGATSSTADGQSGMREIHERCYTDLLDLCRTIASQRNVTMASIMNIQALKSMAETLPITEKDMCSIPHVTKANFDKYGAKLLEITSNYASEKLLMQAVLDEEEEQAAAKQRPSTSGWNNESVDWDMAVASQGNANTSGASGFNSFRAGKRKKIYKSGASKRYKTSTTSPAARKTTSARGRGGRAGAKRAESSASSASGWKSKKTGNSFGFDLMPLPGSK

B1: 3' Tail (o1/o2) (mixed)
DNA 1: GACGCTGCCGAATTCTGGCTTGCTAGGACATCTTTGCCCACGTTGACCCG
DNA 2: ATGTCCTAGCAAGCCAGAATTCGGCAGCGTC
- binding result [1]: binds

B2: Forked (o1/o3) (mixed)
DNA 1: B1 DNA 1
DNA 2: CGAATAATCGTCATGTCCTAGCAAGCCAGAATTCGGCAGCGTC
- binding result [2]: binds

Binder: GACGCTGCCGAATTCTGGCTTGCTAGGACATCTTTGCCCACGTTGACCCG (ssDNA) [o1]
- binding result [3]: binds
